Here are results for 38 sequences from the supplement of paper PMC7877785.

± gives the uncertainty stated by the source.

A short description of this series: self-splicing fitness, log relative to wild type (ln ratio); higher = more splicing; Tetrahymena group I intron in knt gene, E. coli kanamycin selection, DiMSum; sequences stand for … in CUCUCU…GGAGGGAAAAGUUAUCAGGCAUGCACCUGGUAGCUAGUCUUUAAACCAAUAGAUUGCAUCGGUUUAAAAGGCAAGACCGUCAAAUUGCGGGAAAGGGGUCAACAGCCGUUCAGUACCAAGUCUCAGGGGAAACUUUGAGAUGGCCUUGCAAAGGGUAUGGUAAUAAGCUGACGGACAUGGUCCUAACCACGCAGCCAAGUCCUAAGUCAACAGAUCUUCUGUUGAUAUGGAUGCAGUUCACAGACUAAAUGUCGGUCGGGGAAGAUGUAUUCUUCUCAUAAGAUAUAGUCGGACCUCUCCUUAAUGGGAGCUAGCGGAUGAAGUGAUGCAACACUGGAGCCGCUGGGAACUAAUUUGUAUGCGAAAGUAUAUUGAUUAGUUUUGGAGUACUCGUGGUCG
The procedure, abridged:
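Library with all eight P1ex-region intron nucleotides randomised, intron inside the knt kanamycin-resistance gene on pET-22b(+), in E. coli BL21(DE3). Cells grew overnight at 37°C or 30°C on LB agar with or without 25 μg/mL kanamycin (plus 100 μg/mL carbenicillin, 50 μM IPTG, 0.2% rhamnose), in six replicate transformations. Pooled colonies were amplicon-sequenced on Illumina HiSeq 2500. DiMSum fitness is the error-weighted combination of wild-type-normalised replicate fold changes, kanamycin versus none.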

Take CCAGAGCAAUAUUACGCUGC: the “self-splicing fitness (ln)” value was -2.85 ± 0.27 (30 °C) and -1.28 ± 0.25 (37 °C).

CAGCAGCAAUAUUACGGGGG: the “self-splicing fitness (ln)” value runs as follows: (30 °C) -1.63 ± 0.076; (37 °C) -1.54 ± 0.11.

CGAGAGCAAUAUUACGCUCU: the “self-splicing fitness (ln)” value (30 °C) was -3.65 ± 0.27 and the “self-splicing fitness (ln)” value (37 °C) is -2.62 ± 0.3.

CUGUAGCAAUAUUACGGGCG: the “self-splicing fitness (ln)” value was -1.86 ± 0.09 (30 °C) and -0.334 ± 0.11 (37 °C).

For the sequence AUAUAGCAAUAUUACGCCUU, the “self-splicing fitness (ln)” value (30 °C) was -1.01 ± 0.12 and the “self-splicing fitness (ln)” value (37 °C) was -0.431 ± 0.12.

In the case of CAAAAGCAAUAUUACGUCAG, the “self-splicing fitness (ln)” value was -0.464 ± 0.062 (30 °C) and -0.392 ± 0.075 (37 °C).

As to UUUGAGCAAUAUUACGGUUG, the “self-splicing fitness (ln)” value is, setting by setting: (30 °C) -1.79 ± 0.2; (37 °C) -0.702 ± 0.36.

For the sequence CUGCAGCAAUAUUACGGUAC, the “self-splicing fitness (ln)” value runs as follows: (30 °C) -4.59 ± 0.24; (37 °C) -1.81 ± 0.21.

Turning to GUUAAGCAAUAUUACGAUGC, the “self-splicing fitness (ln)” value was -0.546 ± 0.18 (30 °C) and -0.241 ± 0.18 (37 °C).

For the sequence AAAAAGCAAUAUUACGAAAC, the “self-splicing fitness (ln)” value was -3.11 ± 0.22 (30 °C) and -2.36 ± 0.16 (37 °C).

Regarding CGAUAGCAAUAUUACGUCUU, the “self-splicing fitness (ln)” value runs as follows: (30 °C) -1.49 ± 0.13; (37 °C) -0.12 ± 0.13.

Regarding UGGUAGCAAUAUUACGCCGG, the “self-splicing fitness (ln)” value reads like this: (30 °C) -1.3 ± 0.12; (37 °C) -0.73 ± 0.13.

For UGGCAGCAAUAUUACGUUCC, the “self-splicing fitness (ln)” value reads like this: (30 °C) -2.02 ± 0.17; (37 °C) -1.09 ± 0.18.

Take AUAAAGCAAUAUUACGCAAG: the “self-splicing fitness (ln)” value is -1.19 ± 0.12 (30 °C) and -0.742 ± 0.14 (37 °C).

For GGCCAGCAAUAUUACGGAUA, the “self-splicing fitness (ln)” value was -1.41 ± 0.12 (30 °C) and -1.02 ± 0.14 (37 °C).

Take AUUUAGCAAUAUUACGGGUU: the “self-splicing fitness (ln)” value (37 °C) is -0.906 ± 0.21.

In the case of CAUGAGCAAUAUUACGAGAC, the “self-splicing fitness (ln)” value reads like this: (30 °C) -3.32 ± 0.32; (37 °C) -1.35 ± 0.3.

In the case of CAGUAGCAAUAUUACGAGCA, the “self-splicing fitness (ln)” value is -2.59 ± 0.3 (30 °C) and -2.3 ± 0.27 (37 °C).

For the sequence GCCUAGCAAUAUUACGUGGG, the “self-splicing fitness (ln)” value is -4.52 ± 0.23 (30 °C) and -3.36 ± 0.3 (37 °C).

For the sequence GAAGAGCAAUAUUACGCUCG, the “self-splicing fitness (ln)” value runs as follows: (30 °C) -2.32 ± 0.21; (37 °C) -1.37 ± 0.21.

With CCCCAGCAAUAUUACGGCCU, the “self-splicing fitness (ln)” value is -3.02 ± 0.29 (30 °C) and -2.82 ± 0.47 (37 °C).

As to AUUCAGCAAUAUUACGUGUC, the “self-splicing fitness (ln)” value is -4.2 ± 0.22 (30 °C) and -2.02 ± 0.2 (37 °C).

As for GUAGAGCAAUAUUACGUCGG, the “self-splicing fitness (ln)” value was -1.87 ± 0.15 (30 °C) and -1.61 ± 0.22 (37 °C).

Regarding UUGAAGCAAUAUUACGGGAU, the “self-splicing fitness (ln)” value (30 °C) is -2.63 ± 0.14 and the “self-splicing fitness (ln)” value (37 °C) is -1 ± 0.14.

In the case of UGGAAGCAAUAUUACGUCGU, the “self-splicing fitness (ln)” value is, setting by setting: (30 °C) -2.12 ± 0.18; (37 °C) -2.19 ± 0.25.

Turning to AAACAGCAAUAUUACGCUUA, the “self-splicing fitness (ln)” value by setting is: (30 °C) -1.92 ± 0.087; (37 °C) -0.649 ± 0.094.

As to AAACAGCAAUAUUACGACUC, the “self-splicing fitness (ln)” value was -0.613 ± 0.077 (30 °C) and -0.502 ± 0.098 (37 °C).

With AUACAGCAAUAUUACGGCCC, the “self-splicing fitness (ln)” value (30 °C) is -1.15 ± 0.19 and the “self-splicing fitness (ln)” value (37 °C) was -0.184 ± 0.28.

As to CCCGAGCAAUAUUACGUAAG, the “self-splicing fitness (ln)” value (30 °C) is -3.63 ± 0.2 and the “self-splicing fitness (ln)” value (37 °C) was -2.77 ± 0.18.

For the sequence ACGUAGCAAUAUUACGCGCC, the “self-splicing fitness (ln)” value (30 °C) was -1.23 ± 0.19 and the “self-splicing fitness (ln)” value (37 °C) was -0.895 ± 0.25.

Take UCACAGCAAUAUUACGCUUC: the “self-splicing fitness (ln)” value by setting is: (30 °C) -4.3 ± 0.43; (37 °C) -3.28 ± 0.43.

On to UUAUAGCAAUAUUACGGGGU, for which the “self-splicing fitness (ln)” value (30 °C) is -2.93 ± 0.28 and the “self-splicing fitness (ln)” value (37 °C) is -2.15 ± 0.31.

Regarding UCGCAGCAAUAUUACGACAU, the “self-splicing fitness (ln)” value was -3.604 ± 0.025 (30 °C) and -2.56 ± 0.037 (37 °C).

In the case of CGGCAGCAAUAUUACGCAGU, the “self-splicing fitness (ln)” value was -3.02 ± 0.17 (30 °C) and -2.07 ± 0.29 (37 °C).

For the sequence UCGAAGCAAUAUUACGCUCA, the “self-splicing fitness (ln)” value was -2.11 ± 0.19 (30 °C) and -0.861 ± 0.23 (37 °C).

Regarding CCCGAGCAAUAUUACGGGAG, the “self-splicing fitness (ln)” value reads like this: (30 °C) -3.25 ± 0.24; (37 °C) -1.5 ± 0.19.

Take UGUCAGCAAUAUUACGGUUU: the “self-splicing fitness (ln)” value (30 °C) was -1.01 ± 0.061 and the “self-splicing fitness (ln)” value (37 °C) is -0.547 ± 0.086.

Turning to CAGCAGCAAUAUUACGGGCU, the “self-splicing fitness (ln)” value by setting is: (30 °C) -3.74 ± 0.17; (37 °C) -2.51 ± 0.16.
